{"source": "paper PMC9968969", "test_system": "[H][C@@]12COP(=O)(O)O[C@@]1([H])[C@@H](O)[C@H](n1cnc3c(=O)[nH]c(N)nc31)O2", "assay": "purified protein", "conditions": "[…] MgCl2 in the reaction buffer catalytic site"}
{"substance": "PDE5A (Homo sapiens)", "values": [{"measurement": "Km", "value": "3.87 ± 0.12", "unit": "µM"}]}
